Reference: IntAct's records for PubMed 29039417

B1: BBSome complex member BBS2 (Homo sapiens), Q9BXC9 (parent)
chain: MLLPVFTLKLRHKISPRMVAIGRYDGTHPCLAAATQTGKVFIHNPHTRNQHVSASRVFQSPLESDVSLLSINQAVSCLTAGVLNPELGYDALLVGTQTNLLAYDVYNNSDLFYREVADGANAIVLGTLGDISSPLAIIGGNCALQGFNHEGSDLFWTVTGDNVNSLALCDFDGDGKKELLVGSEDFDIRVFKEDEIVAEMTETEIVTSLCPMYGSRFGYALSNGTVGVYDKTSRYWRIKSKNHAMSIHAFDLNSDGVNELITGWSNGKVDARSDRTGEVIFKDNFSSAIAGVVEGDYRMDGHIQLICCSVDGEIRGYLPGTAEMRGNLMDTSAEQDLIRELSQKKQNLLLELRNYEENAKAELASPLNEADGHRGIIPANTRLHTTLSVSLGNETQTAHTELRISTSNDTIIRAVLIFAEGIFTGESHVVHPSIHNLSSSICIPIVPPKDVPVDLHLKAFVGYRSSTQFHVFESTRQLPRFSMYALTSLDPASEPISYVNFTIAERAQRVVVWLGQNFLLPEDTHIQNAPFQVCFTSLRNGGHLHIKIKLSGEITINTDDIDLAGDIIQSMASFFAIEDLQVEADFPVYFEELRKVLVKVDEYHSVHQKLSADMADHSNLIRSLLVGAEDARLMRDMKTMKSRYMELYDLNRDLLNGYKIRCNNHTELLGNLKAVNQAIQRAGRLRVGKPKNQVITACRDAIRSNNINTLFKIMRVGTASS
partner: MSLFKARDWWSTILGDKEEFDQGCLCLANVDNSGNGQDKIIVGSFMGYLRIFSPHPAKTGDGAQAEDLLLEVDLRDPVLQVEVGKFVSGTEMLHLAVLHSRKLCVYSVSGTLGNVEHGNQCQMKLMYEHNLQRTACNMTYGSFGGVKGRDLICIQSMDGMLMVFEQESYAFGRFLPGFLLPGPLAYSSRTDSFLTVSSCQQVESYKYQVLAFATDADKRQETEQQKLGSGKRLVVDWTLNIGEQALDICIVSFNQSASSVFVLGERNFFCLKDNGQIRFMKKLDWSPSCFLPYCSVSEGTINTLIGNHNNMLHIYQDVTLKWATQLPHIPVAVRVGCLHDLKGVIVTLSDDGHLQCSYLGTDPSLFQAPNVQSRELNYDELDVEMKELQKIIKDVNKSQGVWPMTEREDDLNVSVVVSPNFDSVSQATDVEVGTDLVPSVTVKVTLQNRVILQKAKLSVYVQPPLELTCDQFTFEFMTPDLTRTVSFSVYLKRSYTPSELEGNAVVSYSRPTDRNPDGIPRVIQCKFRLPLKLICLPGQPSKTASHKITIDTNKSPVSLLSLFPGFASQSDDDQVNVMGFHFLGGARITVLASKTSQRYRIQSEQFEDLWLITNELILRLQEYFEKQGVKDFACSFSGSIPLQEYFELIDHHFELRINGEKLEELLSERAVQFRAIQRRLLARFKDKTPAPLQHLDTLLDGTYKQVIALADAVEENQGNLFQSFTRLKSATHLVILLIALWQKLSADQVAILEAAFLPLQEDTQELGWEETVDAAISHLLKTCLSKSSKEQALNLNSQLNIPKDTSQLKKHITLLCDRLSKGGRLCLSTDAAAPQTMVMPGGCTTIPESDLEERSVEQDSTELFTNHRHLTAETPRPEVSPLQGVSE

Variants of: B1
Settings: with pthb1_human BBS9, Q3SYG4

Variant	effect of a mutation on the interaction
S439K	with no effect
R703A	with no effect
M634E	with no effect
A701E	with no effect
S390K	with no effect
S390A	with no effect
P444K	with no effect
P444A	with no effect
R652K	with no effect
Y484E	disrupting interaction strength
S720E	with no effect
S720A	with no effect
D613E	with no effect
N393A	with no effect
P587E	with no effect
L402E	disrupting interaction strength
L457C	disrupting interaction strength
S618A	with no effect
S618E	with no effect
I556K	with no effect
G515K	with no effect
Y355K	with no effect
S482P	disrupting interaction strength

Variant	effect of a mutation on the interaction
A719K	with no effect
R506A	with no effect
L391K	with no effect
L391E	with no effect
D523E	with no effect
D371A	with no effect
D371K	with no effect
K641A	with no effect
D649E	with no effect
D649A	with no effect
L685A	with no effect
Y648E	with no effect
G683A	with no effect
T406E	with no effect
G425A	with no effect
R684K	with no effect
T475E	with no effect
L647A	with no effect
C534E	with no effect
N706E	with no effect
T558A	with no effect
H456A	with no effect
K599A	with no effect

Variant	effect of a mutation on the interaction
S405P	disrupting interaction strength
N368E	with no effect
Q569K	with no effect
S488A	with no effect
S488E	with no effect
Q468K	with no effect
L563E	with no effect
R403K	with no effect
I411K	with no effect
I411A	with no effect
Q680E	with no effect
R353K	with no effect
H435E	with no effect
L486K	with no effect
Q477K	with no effect
I707K	with no effect
I707E	with no effect
V687E	with no effect
Q396A	with no effect
Q693E	with no effect
R464K	with no effect
I546A	with no effect
L328E	with no effect

Variant	effect of a mutation on the interaction
V675A	with no effect
V675K	with no effect
I376A	with no effect
V471K	with no effect
V582E	with no effect
G670K	with no effect
G670A	with no effect
R374W	disrupting interaction strength
Y463E	with no effect
Q527K	with no effect
Q527A	with no effect
T467A	with no effect
N380K	with no effect
E401K	with no effect
E401A	with no effect
K360A	with no effect
L519E	with no effect
D630A	with no effect
D630K	with no effect
C442A	with no effect
P452A	with no effect
N517L	disrupting interaction strength
